The numbers were not newly measured in publication PMC3079778, which cites them from elsewhere.

As usually defined, the Kd is the equilibrium constant for the complex coming apart.

Data set [1] concerns the target CYP1A2 (Oryctolagus cuniculus) (UniProt P00187). The data set is described as follows: FRET.
Data set [2] deals with CYP2B4 (Oryctolagus cuniculus) (UniProt P00178). The experiment in a line: FRET.
UniProt P00178, sequence (P00178 whole entry): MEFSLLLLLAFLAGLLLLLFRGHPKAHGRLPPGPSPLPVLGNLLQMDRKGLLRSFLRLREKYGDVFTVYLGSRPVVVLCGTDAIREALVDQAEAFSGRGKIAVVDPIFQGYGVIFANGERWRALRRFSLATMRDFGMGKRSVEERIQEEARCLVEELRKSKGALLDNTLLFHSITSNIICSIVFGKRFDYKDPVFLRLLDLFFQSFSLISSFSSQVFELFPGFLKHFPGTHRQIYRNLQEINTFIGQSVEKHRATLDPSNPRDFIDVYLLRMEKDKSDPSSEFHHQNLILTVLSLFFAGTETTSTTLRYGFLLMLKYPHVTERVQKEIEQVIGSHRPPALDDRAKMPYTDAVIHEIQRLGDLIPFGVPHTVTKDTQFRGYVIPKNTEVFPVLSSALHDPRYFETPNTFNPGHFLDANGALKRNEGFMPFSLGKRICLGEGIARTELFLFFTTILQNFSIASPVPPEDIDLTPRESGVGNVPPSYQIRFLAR

UniProt P00187, sequence (P00187 2-516): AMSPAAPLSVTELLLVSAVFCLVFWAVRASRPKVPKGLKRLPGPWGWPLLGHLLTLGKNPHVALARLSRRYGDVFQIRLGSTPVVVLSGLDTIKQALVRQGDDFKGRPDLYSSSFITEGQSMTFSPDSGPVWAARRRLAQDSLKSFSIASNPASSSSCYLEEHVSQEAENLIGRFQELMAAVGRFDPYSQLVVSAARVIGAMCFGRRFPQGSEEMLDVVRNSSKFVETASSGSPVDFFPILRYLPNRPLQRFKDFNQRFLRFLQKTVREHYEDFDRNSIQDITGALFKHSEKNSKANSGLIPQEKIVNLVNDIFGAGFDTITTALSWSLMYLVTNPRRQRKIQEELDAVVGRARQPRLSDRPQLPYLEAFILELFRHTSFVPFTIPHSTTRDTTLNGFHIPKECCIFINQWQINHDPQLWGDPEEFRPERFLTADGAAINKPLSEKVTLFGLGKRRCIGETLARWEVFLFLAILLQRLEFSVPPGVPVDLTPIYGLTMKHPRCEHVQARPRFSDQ

Regarding CPR (from UniProt P00389), the Kd in data set [1] and in data set [2] was 40 nM each time.
